Test results taken from patent publication US20080199467A1 (TRANSTECH PHARMA, published 2008).

B1: RAGE fusion protein TTP-3000 (Fc fusion)
chain: QNITARIGEPLVLKCKGAPKKPPQRLEWKLNTGRTEAWKVLSPQGGGPWDSVARVLPNGSLFLPAVGIQDEGIFRCQAMNRNGKETKSNYRVRVYQIPGKPEIVDSASELTAGPSVFLFPPKPKDTLMISRTPEVTCVVVDVSHEDPEVKFNWYVDGVEVHNAKTKPREEQYNSTYRVVSVLTVLHQDWLNGKEYKCKVSNKALPAPIEKTISKAKGQPREPQVYTLPPSRDELTKNQVSLTCLVKGFYPSDIAVEWESNGQPENNYKTTPPVLDSDGSFFLYSKLTVDKSRWQQGNVFSCSVMHEALHNHYTQKSLSLSPGK
modifications: N-terminal glutamine may be cyclized to pyroglutamic acid (SEQ ID NO: 19)
notes: The range 24-346 is derived from this and from the coding length 1-1041; No characterization of the expressed TTP-3000 is reported; also called TT3; three domain fusion protein
B2: RAGE fusion protein TTP-4000 (Fc fusion)
chain: QNITARIGEPLVLKCKGAPKKPPQRLEWKLNTGRTEAWKVLSPQGGGPWDSVARVLPNGSLFLPAVGIQDEGIFRCQAMNRNGKETKSNYRVRVYQIPGKPEIVDSASELTAGVPNKVGTCVSEGSYPAGTLSWHLDGKPLVPNEKGVSVKEQTRRHPETGLFTLQSELMVTPARGGDPRPTFSCSFSPGLPRHRALRTAPIQPRVWEPVPLEEVQLVVEPEGGAVAPPSVFLFPPKPKDTLMISRTPEVTCVVVDVSHEDPEVKFNWYVDGVEVHNAKTKPREEQYNSTYRVVSVLTVLHQDWLNGKEYKCKVSNKALPAPIEKTISKAKGQPREPQVYTLPPSRDELTKNQVSLTCLVKGFYPSDIAVEWESNGQPENNYKTTPPVLDSDGSFFLYSKLTVDKSRWQQGNVFSCSVMHEALHNHYTQKSLSLSPGK
modifications: N-terminal residue glutamine (Q) or pyroglutamic acid (pE) or a mixture thereof; glycosylation sites at N2 and N288 (numbering of the processed protein); C-terminal residue may be cleaved off
notes: The end of the range (461) is derived from the coding length 1-1386 and from residues P459 and G460 near the terminal codon; also called TT4; four domain fusion protein

Biological target: T1, BSA (UniProt P02769 25-607)
T1 construct: Negative control coating; also called BSA coating alone; BSA+wash
Assay: ELISA, plate coated with BSA only, dilutions of fusion protein, anti-human IgG1 immunodetection complex, A405
Description: Known RAGE ligands were coated onto the surface of Maxisorb plates at a concentration of 5 micrograms per well. Plates were incubated at 4° C. overnight. Following ligand incubation, plates were aspirated and a blocking buffer of 1% BSA in 50 mM imidizole buffer (pH 7.2) was added to the plates for 1 hour at room temperature. The plates were then aspirated and/or washed with wash buffer (20 mM Imidizole, 150 mM NaCl, 0.05% Tween-20, 5 mM CaCl₂ and 5 mM MgCl₂, pH 7.2). […] The RAGE fusion protein was added at increasing dilutions of the initial sample. The RAGE fusion protein was allowed to incubate with the immobilized ligand at 37° C. for one hour after which the plate was washed and assayed for binding of the RAGE fusion protein. Binding was detected by the addition of an immunodetection complex containing a monoclonal mouse anti-human IgG1 diluted 1:11,000 to a final assay concentration (FAC) of 21 ng/100 μL, a biotinylated goat anti-mouse IgG diluted 1:500, to a FAC of […], and an avidin-linked alkaline phosphatase. […] Binding of the complex to the immobilized RAGE fusion protein was quantified by measuring conversion of PNPP to para-nitrophenol (PNP) which was measured spectrophotometrically at 405 nm.

T1 sequence (P02769 25-607 limits assumed): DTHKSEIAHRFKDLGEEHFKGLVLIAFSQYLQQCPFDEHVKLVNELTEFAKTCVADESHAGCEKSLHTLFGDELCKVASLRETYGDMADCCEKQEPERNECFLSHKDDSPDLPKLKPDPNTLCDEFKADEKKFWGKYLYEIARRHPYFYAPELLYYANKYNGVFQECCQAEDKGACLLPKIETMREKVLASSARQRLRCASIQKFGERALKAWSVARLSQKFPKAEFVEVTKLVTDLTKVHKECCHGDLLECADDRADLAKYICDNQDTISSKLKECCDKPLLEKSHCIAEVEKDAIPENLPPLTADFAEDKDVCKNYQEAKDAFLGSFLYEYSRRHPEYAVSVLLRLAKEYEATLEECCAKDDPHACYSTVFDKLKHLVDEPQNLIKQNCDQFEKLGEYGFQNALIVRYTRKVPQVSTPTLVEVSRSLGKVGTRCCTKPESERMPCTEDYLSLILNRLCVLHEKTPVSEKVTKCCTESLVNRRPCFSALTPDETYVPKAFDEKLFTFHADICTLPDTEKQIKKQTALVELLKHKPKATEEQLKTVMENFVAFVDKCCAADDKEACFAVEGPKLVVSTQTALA

Row | Binder | binding result
1 | B1 | no binding
2 | B2 | no binding
